Results published in patent US20120077731A1 (Ablynx, published 2012).

Legend:
Human plasma sIL-6R [1] = target: T1, Human plasma sIL-6R (human, UniProt P08887 20-355, limits assumed); assay: plasma potency ELISA, human plasma
T1 construct: also called plasma-derived human IL-6R
T1 sequence (looked up): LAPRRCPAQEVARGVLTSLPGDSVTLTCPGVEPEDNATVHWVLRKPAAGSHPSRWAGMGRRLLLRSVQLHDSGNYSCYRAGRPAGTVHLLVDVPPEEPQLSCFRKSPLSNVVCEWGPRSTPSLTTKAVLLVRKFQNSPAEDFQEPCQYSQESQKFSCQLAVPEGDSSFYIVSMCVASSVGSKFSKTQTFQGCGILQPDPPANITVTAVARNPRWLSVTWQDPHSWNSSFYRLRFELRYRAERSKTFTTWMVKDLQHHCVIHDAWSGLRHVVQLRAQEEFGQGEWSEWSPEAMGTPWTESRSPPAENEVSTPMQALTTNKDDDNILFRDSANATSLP

[2] = target: T2, Human membrane IL-6R on cells (human, UniProt P08887 20-468); assay: flow cytometry, human PBL, monocytes donor 1
T2 construct: whole, on cells; also called cell-surface expressed human IL-6R
T2 sequence (looked up): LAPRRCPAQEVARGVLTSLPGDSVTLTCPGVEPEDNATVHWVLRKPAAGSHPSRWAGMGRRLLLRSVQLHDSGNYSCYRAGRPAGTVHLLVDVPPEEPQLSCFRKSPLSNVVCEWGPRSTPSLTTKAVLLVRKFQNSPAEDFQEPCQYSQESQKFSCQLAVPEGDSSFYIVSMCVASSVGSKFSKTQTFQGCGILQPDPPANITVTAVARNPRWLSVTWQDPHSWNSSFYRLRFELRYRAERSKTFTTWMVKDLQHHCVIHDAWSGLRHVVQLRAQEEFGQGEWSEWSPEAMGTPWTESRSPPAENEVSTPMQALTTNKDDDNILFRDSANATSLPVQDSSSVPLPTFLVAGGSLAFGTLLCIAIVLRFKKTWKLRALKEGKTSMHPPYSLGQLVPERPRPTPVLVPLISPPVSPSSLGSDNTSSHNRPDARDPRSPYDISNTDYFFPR

Human plasma sIL-6R [3] = target: T1, Human plasma sIL-6R; assay: plasma potency ELISA, human plasma, normal IL-6 (EC50)
CLF-1/CLC = target: T3, CLF-1/CLC (UniProt O75462 38-422; Q9UBD9 28-225, limits assumed); assay: competitive binding ELISA, similar setup (results not shown)
T3 sequence (looked up) 1: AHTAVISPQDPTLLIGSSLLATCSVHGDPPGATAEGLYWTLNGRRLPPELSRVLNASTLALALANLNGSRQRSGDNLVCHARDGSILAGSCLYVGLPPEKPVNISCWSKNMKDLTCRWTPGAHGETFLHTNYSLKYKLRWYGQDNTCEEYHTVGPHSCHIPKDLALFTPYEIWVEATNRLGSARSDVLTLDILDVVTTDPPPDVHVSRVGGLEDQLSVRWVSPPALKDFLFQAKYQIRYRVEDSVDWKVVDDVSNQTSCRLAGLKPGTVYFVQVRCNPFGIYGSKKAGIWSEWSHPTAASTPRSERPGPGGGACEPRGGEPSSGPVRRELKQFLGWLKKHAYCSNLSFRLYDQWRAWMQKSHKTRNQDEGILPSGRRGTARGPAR
T3 sequence (looked up) 2: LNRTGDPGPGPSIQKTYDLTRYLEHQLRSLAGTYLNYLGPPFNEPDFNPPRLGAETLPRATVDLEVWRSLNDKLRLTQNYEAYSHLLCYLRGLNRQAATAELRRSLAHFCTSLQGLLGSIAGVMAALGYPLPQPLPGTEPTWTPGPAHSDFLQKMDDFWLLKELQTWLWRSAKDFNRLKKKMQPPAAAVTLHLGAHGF

IL12-p40 = target: T4, IL12-p40 (UniProt P29460 23-328); assay: as above
T4 sequence (looked up): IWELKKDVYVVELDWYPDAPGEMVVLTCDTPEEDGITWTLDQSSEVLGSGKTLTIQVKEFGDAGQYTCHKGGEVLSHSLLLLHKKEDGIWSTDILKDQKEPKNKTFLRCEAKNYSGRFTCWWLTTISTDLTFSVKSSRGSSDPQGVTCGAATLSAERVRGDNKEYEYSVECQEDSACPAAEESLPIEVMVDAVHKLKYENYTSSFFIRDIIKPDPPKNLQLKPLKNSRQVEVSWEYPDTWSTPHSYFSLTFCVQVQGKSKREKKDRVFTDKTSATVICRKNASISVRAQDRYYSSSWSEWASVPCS

IL-27B = target: T5, IL-27B (UniProt Q14213 21-229, limits assumed); assay: as above
T5 sequence (looked up): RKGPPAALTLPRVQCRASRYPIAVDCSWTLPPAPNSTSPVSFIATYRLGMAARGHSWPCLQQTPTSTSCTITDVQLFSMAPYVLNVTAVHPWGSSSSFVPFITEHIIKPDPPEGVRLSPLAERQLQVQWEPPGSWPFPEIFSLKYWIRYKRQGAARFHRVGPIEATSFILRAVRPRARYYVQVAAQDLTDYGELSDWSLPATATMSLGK

gp130/Fc = target: T6, gp130/Fc (UniProt P40189 23-619); assay: as above
T6 construct: not shown: Fc part, not described
T6 sequence (looked up): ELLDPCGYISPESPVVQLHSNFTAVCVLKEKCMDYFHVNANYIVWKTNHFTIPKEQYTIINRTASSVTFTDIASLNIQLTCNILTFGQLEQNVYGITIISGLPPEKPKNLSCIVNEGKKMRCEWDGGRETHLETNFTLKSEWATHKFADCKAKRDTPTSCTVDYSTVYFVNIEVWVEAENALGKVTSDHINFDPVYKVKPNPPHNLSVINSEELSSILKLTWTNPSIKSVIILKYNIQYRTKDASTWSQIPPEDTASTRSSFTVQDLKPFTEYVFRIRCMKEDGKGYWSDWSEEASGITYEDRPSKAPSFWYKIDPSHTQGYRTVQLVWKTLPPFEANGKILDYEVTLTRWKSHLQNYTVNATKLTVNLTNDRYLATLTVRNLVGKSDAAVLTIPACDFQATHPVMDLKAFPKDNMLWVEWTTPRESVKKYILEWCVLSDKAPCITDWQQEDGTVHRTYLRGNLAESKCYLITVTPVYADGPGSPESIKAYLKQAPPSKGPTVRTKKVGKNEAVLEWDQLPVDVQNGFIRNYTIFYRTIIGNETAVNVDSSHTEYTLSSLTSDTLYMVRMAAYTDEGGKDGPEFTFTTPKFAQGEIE

B1: PMP20A11 (VHH)
VHH: EVQLVESGGGLVQPGGSLRLSCAASGSVFKINVMAWYRQAPGKGRELVAGIISGGSTSYADSVKGRFTISRDNAKNTLYLQMNSLRPEDTAVYYCAFITTESDYDLGRRYWGQGTLVTVSS
notes: also called IL6R20A11; IL6R300; not shown: c-myc and (His)6 tags
Human plasma sIL-6R [1]
  Ratio (high/low) of IC50: 1.8
[2]
  EC50: 3.62 nM
Human plasma sIL-6R [3]
  IC50: 0.198 nM
CLF-1/CLC
  binding result: no binding (tested: 100 nM)
IL12-p40
  binding result: no binding (tested: 100 nM)
IL-27B
  binding result: no binding (tested: 100 nM)
gp130/Fc
  binding result: no binding (tested: 100 nM)
